Test results as given in patent US20240207461A1, “RADIOACTIVE ANTITUMOR AGENT” (NIHON MEDI-PHYSICS CO., LTD., priority 2021, published 2024).
Substitutions are numbered along the chain they refer to.

B1: H01L03: anti-MUC5AC humanized antibody, heavy chain variable region H01 (SEQ ID NO: 1), light chain L03 (SEQ ID NO: 7), tested ^111In-labeled via DOTA-PEG-peptide (conjugate)
VH: EVQLLESGGGLVQPGGSLRLSCAASGFTFSNYGMSWVRQAPGKGLEWVSTISNSGRYTYFPDSVKGRFTISRDNSKNTLYLQMNSLRAEDTALYYCTRHLDYANYDAMDYWGQGTLVTVSS
VL: DIQMTQSPSSLSASVGDRVTITCRASKSVTTSDFSYMHWYQQKPGKSPKLLIYLASNLESGVPSRFSGSGSGTDFSLTISSLQPEDFATYYCQHSREFPWTFGGGTKVEIK
modifications: 111In-DOTA-PEG-peptide label; Humanaized antibody heavy chain variable region 1 (H01); Humanaized antibody light chain variable region 3 (L03)
B2: chimeric antibody: anti-MUC5AC chimeric antibody disclosed in Patent Literature 1 (SEQ ID NOs: 23 and 24), tested ^111In-labeled (conjugate)
VH: EVKLVESGGVLVKSGGSLKLSCAVSGFTFSNYGMSWVRQTPEKRLEWVATISNSGRYTYFPDSVKGPFAISRDNAKNNLYLQMSSLRSADTALYYCTRHLDYANYDAMDYWGQGTSVTVSS
VL: DIVLTQSPASLAVSLGQRATISCRASKSVTTSDFSYMHWYQQKPGQPPKLLLYLASNLESGVPDRFSGSGSGYDFYLNIHPVEEEDAATYYCQHSREFPWTFGGGTKLEIK
modifications: 111In label; Kimeric antibody heavy chain variable region 7 (H07); Kimeric antibody light chain variable region 8 (L08)
B3: H02L04: anti-MUC5AC humanized antibody, H02 (SEQ ID NO: 2) and L04 (SEQ ID NO: 8), tested ^111In-labeled (conjugate)
VH: B1 VH with E1L, L5V, L11V, Q13R, V37I, S75A, T78S
VL: DIVMTQSPDSLAVSLGERATINCKASKSVTTSDFSYLHWYQQKPGQPPKLLIYLASNLESGVPDRFSGSGSGTDFTLTISSLQAEDVAVYYCQHSREFPWTFGGGTKLEIK
modifications: 111In label; Humanaized antibody heavy chain variable region 2 (H02); Humanaized antibody light chain variable region 4 (L04)
B4: H04L04: anti-MUC5AC humanized antibody, H04 (SEQ ID NO: 4) and L04 (SEQ ID NO: 8), tested ^111In-labeled (conjugate)
VH: B1 VH with A24V, K76R, S85T, L93V, L116P
VL: B3 VL
modifications: 111In label; Humanaized antibody heavy chain variable region 4 (H04); Humanaized antibody light chain variable region 4 (L04)
B5: H01L04: anti-MUC5AC humanized antibody, H01 (SEQ ID NO: 1) and L04 (SEQ ID NO: 8), tested ^111In-labeled (conjugate)
VH: B1 VH
VL: B3 VL
modifications: 111In label; Humanaized antibody heavy chain variable region 1 (H01); Humanaized antibody light chain variable region 4 (L04)

The molecules below were run on SW1990 tumor-bearing mice (assay: SPECT-CT imaging of ^111In-labeled antibodies, VOI analysis and absorbed dose calculation). Details: 168 hr after administration.
Format: in vivo, Balb/c nude mice
Procedure: To find an anti-MUC5AC antibody with high tumor accumulation ability and high maximum tolerated dose, various antibodies were labeled with ^111In, administered to tumor-bearing mice, and SPECT-CT imaging was performed. Cumulative amount of radioactivity and absorbed dose in tumor and liver were calculated and compared using the obtained images.
(§1) Human pancreatic cancer cell line SW1990 (0.7×10^7 cells) were subcutaneously administered to Balb/c nude mice (male) from the flank to the back thereof.
(§2) When the tumor size reached about 150-300 mm^3 14 days after transplantation of SW1990, various ^111In-labeled antibodies prepared in Reference Example 1-1 were administered from the tail vein of the mice. The tumor volume was calculated from the following calculation formula.
SPECT-CT imaging (small animal SPECT-CT apparatus: FX-3000, manufactured by Trifoil) was performed under the conditions in the following Table. The time points for imaging were 1, 6, 24, 48, 72, and 168 hr after administration. Image reconstruction was performed by the OSEM method for SPECT and the FBP method for CT. A VOI (volume of interest, three-dimensional ROI) analysis of the tumor and liver at each time point was performed. The count number per organ volume was corrected to % ID/g, the physical half-life was converted from ^111In to ^225Ac, the difference in physical half-life was corrected, and the time activity curve with the biological half-life added was obtained. The cumulative radioactivity amount was calculated from the integrated value of this time activity curve, and the absorbed dose was calculated in a sphere model (OLINDA/EXM ver2.0), and this was compared and examined for each antibody. However, for H01L03, a decrease in the time activity curve was not observed 168 hr after administration. Thus, the biological half-life was not considered and only the physical half-life was added.
When the threshold dose of liver was assumed to be 30 Gy, the maximum tolerated dose was estimated to be 3.90 MBq with a humanized antibody (H01L03) and 0.43 MBq with a chimeric antibody. The maximum tolerated dose (MBq) was calculated by threshold dose (Gy)/absorbed dose (Gy/MBq).
(§3) In the Table, the tumor volume was calculated assuming 150 mm^3 in the absorbed dose of SPECT. The absorbed dose of the liver was calculated based on the mean (1.15±0.14 g, n=19) of the weight of the mouse liver used in this Reference Example. The numerical value of the biodistribution was expressed by the mean±standard deviation of n=4 (however, n=3 for H02L04).

| Molecule | decrease in the time activity curve |
| --- | --- |
| B1 | not observed |

Same assay, conditions: ^111In-labeled antibodies, SPECT-CT up to 168 hr

| Molecule | accumulation in the liver (comparison among antibodies) | accumulation in the tumor (comparison among antibodies) |
| --- | --- | --- |
| B2 | highest | lowest |
| B1 | – | highest |

Same assay, conditions: half-life converted from ^111In to ^225Ac; sphere model; mean liver weight 1.15 g

| Molecule | SPECT absorbed dose liver [Gy/MBq] |
| --- | --- |
| B2 | 70.1 |
| B1 | 7.7 |
| B3 | 27.0 |
| B4 | 35.4 |
| B5 | 33.4 |

Same assay, conditions: half-life converted from ^111In to ^225Ac; sphere model; tumor volume assumed 150 mm^3

| Molecule | SPECT absorbed dose tumor [Gy/MBq] |
| --- | --- |
| B2 | 9.5 |
| B1 | 35.0 |
| B3 | 13.7 |
| B4 | 15.0 |
| B5 | 15.3 |

Same assay, conditions: threshold dose of liver assumed to be 30 Gy

| Molecule | maximum tolerated dose (threshold dose/absorbed dose) [MBq] |
| --- | --- |
| B2 | 0.43 |
| B1 | 3.90 |

Each molecule was assayed on SW1990 tumor-bearing mice (assay: Biodistribution and excretion route 168 hr after administration of ^111In-labeled antibodies). Details: 168 hr after administration.
Format: in vivo, Balb/c nude mice
Procedure: as §1, §2
A graph showing the results of confirming the biodistribution and the excretion route after the completion of SPECT-CT imaging 168 hr after administration are shown in FIG. 11.
as §3

| Molecule | blood retention | excretion |
| --- | --- | --- |
| B1 | high | slowest |

Same assay, conditions: ^111In-labeled antibody, tail vein; mean ± SD n=4 (n=3 for H02L04)

| Molecule | biodistribution at 168 hr after administration, blood [% ID/g] | biodistribution at 168 hr after administration, kidney [% ID/g] | biodistribution at 168 hr after administration, liver [% ID/g] | biodistribution at 168 hr after administration, spleen [% ID/g] | biodistribution at 168 hr after administration, tumor [% ID/g] |
| --- | --- | --- | --- | --- | --- |
| B2 | 2.2 ± 0.6 | 1.8 ± 0.3 | 7.9 ± 1.9 | 5.0 ± 1.8 | 11.6 ± 0.9 |
| B1 | 5.3 ± 1.3 | 2.5 ± 0.4 | 3.6 ± 1.7 | 5.4 ± 0.8 | 24.2 ± 3.9 |
| B3 | 2.6 ± 2.3 | 1.4 ± 1.0 | 2.7 ± 0.7 | 4.0 ± 3.0 | 15.6 ± 6.2 |
| B4 | 3.8 ± 0.7 | 1.6 ± 0.2 | 3.9 ± 1.4 | 3.4 ± 0.3 | 17.2 ± 4.2 |
| B5 | 2.1 ± 0.8 | 1.1 ± 0.3 | 3.1 ± 0.9 | 3.8 ± 1.2 | 12.9 ± 2.6 |
